Data on three molecules can be found in patent publication US20180362643A1 (Amgen, published 2018).

Assay [1] has as its target T1, vasoactive intestinal peptide (VIP) (human).
T1 construct: also called human VIP
T1 peptide: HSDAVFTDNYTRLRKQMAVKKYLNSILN
Put plainly: ELISA screen of B-cell culture supernatant; VIP at 100 ng/mL. (In general: ELISA stands for enzyme-linked immunosorbent assay.)

Assay [2] addresses T1, vasoactive intestinal peptide (VIP). Put plainly: ELISA screen of B-cell culture supernatant.
Assay [3] deals with T2, carboxy terminal PACAP38 peptide (amino acids 28-38) (human, ends and bridges not checked).
T2 construct: also called C-terminal Peptide; C-terminal PACAP peptide
T2 peptide: GKRYKQRVKNK
Put plainly: ELISA screen of B-cell culture supernatant; C-terminal peptide at 500 ng/mL. The source says:
(§1) Rabbits were immunized with human PACAP38 peptide ([…]; SEQ ID NO: 1). Monoclonal antibodies were generated from the immunized rabbits using the Selected Lymphocyte Antibody Method (SLAM) as described in Babcook et al., Proc. Natl. Acad. Sci. USA, Vol. 93: 7843-7848, 1996. Briefly, B cells were harvested from spleens from the immunized rabbits and expanded in culture. The supernatant from the expanded B-cell cultures was initially screened for binding to an amino terminal PACAP38 peptide ([…]; SEQ ID NO: 5) and a carboxy terminal PACAP38 peptide ([…]; SEQ ID NO: 4) using an ELISA assay. From the initial screen, 2,935 N-terminal and/or C-terminal binders were identified. The affinity of these antibodies for full-length human PACAP38 (SEQ ID NO: 1) was assessed by ELISA assay.

For assay [4], the target named is T3, amino terminal PACAP38 peptide (amino acids 1-13) (human).
T3 construct: also called N-terminal Peptide; N-terminal PACAP peptide
T3 peptide: HSDGIFTDSYSRY
Nature of the assay: ELISA screen of B-cell culture supernatant; N-terminal peptide at 500 ng/mL.

The target of assay [5] is T4, PACAP38 peptide fragment 27-38 (human, ends and bridges not checked).
T4 construct: also called peptide No. 6
T4 peptide: LGKRYKQRVKNK
Put plainly: SPR (Biacore 3000), solution competition: antibody pre-incubated 2 h with the peptide at 1:200 molar ratio (Ab:peptide), then injected over immobilised full-length PACAP38; readout % inhibition of antibody binding (filing counts >50 % as reactive). The procedure: (§2) The binding epitopes of anti-PACAP antibodies were evaluated by using the Biacore 3000 biosensor-based instrument (GE Healthcare USA). The Biacore 3000 instrument utilizes surface plasmon resonance (SPR) technology to measure mass increase on the sensor-chip surface. The binding interactions are measured in real-time and recorded as Response Units (RU). Each binding profile (cycle) is stored in a “sensorgram” in real-time. Generally, Biacore technology entails immobilizing a ligand of interest on to a flow-cell of the sensor-chip via a coupling chemistry. The analyte (e.g. putative binding partner to the ligand of interest) is injected across the immobilized ligand allowing it to bind to the ligand-immobilized surface. The magnitude of the response is directly proportional to the mass increase on the immobilized surface due to the binding of the analyte.
(§3) In this experiment, various peptide fragments of PACAP38 were incubated with each of the six antibodies (mAb1, mAb2, mAb3, mAb4, mAb5, and mAb6) described in Example 2 and evaluated for their ability to inhibit binding of the antibodies to full-length PACAP38 immobilized on the sensor-chip. The binding epitopes for each of the antibodies were deduced from the set of peptides that were able to inhibit the binding of each antibody to full-length PACAP38.
(§4) Each of the six anti-PACAP antibodies was incubated at a 1:200 molar ratio (Ab: peptide fragment) with each of the peptide fragments in Table 9 at an ambient temperature for 2 hours prior to analysis. […] A second control containing 6.5 nM antibody was prepared in sample diluent to be used as the untreated control sample for each antibody. Full-length PACAP38, buffer, and each peptide fragment were also tested to evaluate non-specific binding to the immobilized PACAP38 surface.

For assay [6], the target named is T3, amino terminal PACAP38 peptide (amino …). Nature of the assay: SPR (Biacore 3000), solution competition with the peptide for antibody binding to immobilised full-length PACAP38; % inhibition. The procedure:
as §2, §3, §4
Background: In SPR one partner is held on a chip, and binding of the other changes the refractive index at the surface.

Assay [7] concerns the target T5, PACAP38 peptide fragment 34-38 (human, ends and bridges not checked).
T5 construct: also called peptide No. 17; RVKNK
T5 peptide: RVKNK
Described as above. The procedure: as §2, §3, §4

Assay [8] addresses T6, PACAP38 peptide fragment 6-20 (human).
T6 construct: also called peptide No. 13
T6 peptide: FTDSYSRYRKQMAVK
The assay is described as above. The procedure:
as §2, §3, §4

In a further assay the target is T7, 30-37.
T7 construct: also called PACAP38 peptide fragment 30-37; peptide No. 19
T7 peptide: RYKQRVKN
The assay is described as above. The procedure: as §2, §3, §4

The target of assay [9] is T8, PACAP38 peptide fragment 26-33 (human).
T8 construct: also called peptide No. 2
T8 peptide: VLGKRYKQ
Put plainly: SPR (Biacore 3000) solution competition against immobilised PACAP38.

Assay [10] concerns the target T9, 31-38 (ends and bridges not checked).
T9 construct: also called PACAP38 peptide fragment 31-38; peptide No. 5
T9 peptide: YKQRVKNK
Put plainly: SPR (Biacore 3000), solution competition: antibody pre-incubated 2 h with the peptide at 1:200 molar ratio (Ab:peptide), then injected over immobilised full-length PACAP38; readout % inhibition of antibody binding (filing counts >50 % as reactive). The procedure:
as §2, §3, §4

The target in assay [11] is T2, carboxy terminal PACAP38 peptide (amino …). Put plainly: ELISA screen of B-cell culture supernatant.
Assay [12] deals with T3, amino terminal PACAP38 peptide (amino …). Put plainly: ELISA screen of B-cell culture supernatant; N-terminal peptide at 500 ng/mL; ELISA screen of B-cell culture supernatant (Example 1); N-terminal peptide 500 ng/mL; optical density.
Source text: as §1

In assay [13] the target is T4, PACAP38 peptide fragment 27-38. Put plainly: SPR (Biacore 3000) solution competition against immobilised PACAP38.
For assay [14], the target named is T10, PACAP38 peptide fragment 6-37 (human).
T10 construct: also called peptide No. 3
T10 peptide: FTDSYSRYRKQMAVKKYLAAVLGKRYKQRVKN
Nature of the assay: SPR (Biacore 3000) solution competition: antibody pre-incubated 1:200 with the fragment, then injected over immobilised PACAP38. The procedure: as §3, §4

Assay [15] addresses T11, PACAP38 peptide fragment 6-36 (human).
T11 construct: also called peptide No. 12
T11 peptide: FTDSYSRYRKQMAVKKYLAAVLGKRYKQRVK
The assay is described as above. The procedure: as §3, §4

Assay [16] has as its target T6, PACAP38 peptide fragment 6-20. The description is as above. The procedure:
as §3, §4

The target of assay [17] is T12, PACAP38 peptide fragment 6-38 (human, not fully specified).
T12 construct: also called peptide No. 11
T12 peptide: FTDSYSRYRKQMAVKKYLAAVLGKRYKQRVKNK
The assay is described as above. The procedure:
as §3, §4

Assay [18] addresses T13, PACAP38 peptide fragment 4-27 (human).
T13 construct: also called peptide No. 9
T13 peptide: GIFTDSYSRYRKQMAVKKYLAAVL
The assay is described as above. The procedure:
as §3, §4

Assay [19] deals with T14, PACAP38 peptide fragment 6-35 (human).
T14 construct: also called peptide No. 4
T14 peptide: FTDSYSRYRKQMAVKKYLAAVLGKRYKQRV
The assay is described as above. The procedure: as §3, §4

Assay [20] has as its target T15, full-length human PACAP38 (human, not fully specified).
T15 construct: Corresponds to amino acids 132-169 of the precursor (NP 001108.2); The description says natural PACAP38 is C-terminally amidated; also called Full-length PACAP38
T15 peptide: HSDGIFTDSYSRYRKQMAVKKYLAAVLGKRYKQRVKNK
Put plainly: ELISA screen of B-cell culture supernatant; full-length PACAP38 at 10 ng/mL.
Source text: as §1

Assay [21] has as its target T15, full-length human PACAP38. Put plainly: cell-based or functional assay.
Assay [22] addresses T16, PACAP38 peptide fragment 14-38 (human, not fully specified).
T16 construct: also called peptide No. 7
T16 peptide: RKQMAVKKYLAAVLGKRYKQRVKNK
Put plainly: SPR (Biacore 3000), solution competition with the peptide for antibody binding to immobilised full-length PACAP38; % inhibition. The procedure: as §2, §3, §4

Assay [23] concerns the target T9, 31-38. The assay is described as above. The procedure:
as §2, §3, §4

Assay [24] deals with T17, PACAP38 peptide fragment 11-27 (human).
T17 construct: also called peptide No. 8
T17 peptide: SRYRKQMAVKKYLAAVL
The assay is described as above. The procedure: as §2, §3, §4

In another assay the target is T18, human PACAP27 (human, not fully specified).
T18 peptide: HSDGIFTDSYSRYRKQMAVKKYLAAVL
Nature of the assay: cell-based or functional assay.

Where a chain is given by its changes, count along the chain named. Ends that are not written are not given here.

B1: mAb3 (antibody, V domains shown)
VH: QSLEESGGGLVQPGASLTLTCTASGFSFSSNYYMCWVRQAPGKGLEWIACIFTGSSGSTYYASWAKGRFTISKTSSTTVTLHVTSLTAADTATYFCARDRALSVVGYFYAAYYFDFWGPGTLVTVSS
VL: DVVMTQTPSPVSAAVGGTVTINCRASEDIESFLAWYQQKPGQPPKLLMSRTSTLESGVPSRFKGSGSGTEFTLTISDLECADAATYYCQCTDGSSSSSSYGWDAFGGGTEVVVKG
notes: Rabbit monoclonal antibody (SLAM), recombinant; also called monoclonal anti-PACAP antibody 3; 3 (c89)
Take B1: the entries for the “Optical Density” value in assay [1], in [3] and in [4] were 0.07 OD, 3.59 OD and 0.06 OD, respectively. For the same molecule, the binding result in [2] is “no binding (tested: 100 ng/mL)”; in assay [5] it was “binds”; in assay [6], “no binding (tested: 1:200 molar ratio (Ab:peptide))”; in assay [7] it was “no binding (tested: 1:200 molar ratio (Ab:peptide))”; in assay [8] it was “no binding (tested: 1:200 molar ratio (Ab:peptide))”; with 30-37, “no binding (tested: 1:200 molar ratio (Ab:peptide))”.

B2: mAb1 (antibody, V domains shown)
VH: QSLEESGGDLVKPGASLTLTCKASGIAFSNDYMCWVRQAPGKGLEWIACIFTGSSGSTYYASWAKGRFTISKTSSTTVTLQMTSLTAADTATYFCARDRAISVLGYFYAAYFFDFWGPGTLVTVSS
VL: B1 VL with M48I, P59S, T72I
notes: Rabbit monoclonal antibody (SLAM), cloned, recombinantly expressed and purified; also called monoclonal anti-PACAP antibody 1; 1 (c20)
Turning to B2, the “Optical Density” value in assay [1] is 0.08 OD; in assay [3] it was 5.33 OD; in [4], 0.05 OD. The binding result is “no binding (tested: 100 ng/mL)” in assay [2]; “no binding (tested: 1:200 molar ratio (Ab: peptide fragment))” in [9]; “binds” in assay [5]; “binds” with 31-38 [10]; “no binding (tested: 1:200 molar ratio (Ab:peptide))” in assay [6]; “no binding (tested: 1:200 molar ratio (Ab:peptide))” in assay [8].

B3: mAb4 (antibody, V domains shown)
VH: QSVEESGGRLVTPGTPLTLTCTASGIDLSSYAMIWVRQAPGEGLEYIGFIDAGDGNTYYASWAKGRFTISKTSTTVDLKITSPTTEDTATYFCARGDPGWSNGFALWGQGTLVTVSS
VL: DIVMTQTPASVSGAVGGTVTIKCQASQSIRNELSWYQQKPGQPPKLLIYKASTLASGVPSRFSGSGFGTEFTLTISGVQCDDAATYYCQNNYGTRRNNYVFPFGGGTEVVVKG
notes: Rabbit monoclonal antibody (SLAM), recombinant; also called monoclonal anti-PACAP antibody 4; 4 (c47)
Consider B3, for which the Optical Density in assay [1] was 0.24 OD; in assay [3], 0.05 OD; in assay [12], 3.68 OD; in assay [20], 2.09 OD. In addition, the binding result in [11] is reported as “no binding (tested: 500 ng/mL)”; in assay [13] it was “no binding (tested: 1:200 molar ratio (Ab: peptide fragment))”; in assay [14] it was “binds”; in assay [15], “binds”; in [16] it was “binds”; in [17] it was “binds”. The binding result in assay [18] is on record as “binds”; in assay [19], “binds”; in assay [22] it was “no binding (tested: 1:200 molar ratio (Ab:peptide))”; in assay [7], “no binding (tested: 1:200 molar ratio (Ab:peptide))”; with 31-38 [23], “no binding (tested: 1:200 molar ratio (Ab:peptide))”; in assay [24], “no binding (tested: 1:200 molar ratio (Ab:peptide))”. For the same molecule, in the assay with 30-37, the binding result is on record as “no binding (tested: 1:200 molar ratio (Ab:peptide))”. Moreover, in assay [21], the “IC50: inhibition of PACAP38 (10 pM)-induced activation of human PAC1 receptor, cAMP assay in SH-SY5Y (CRL-2266) cells, POC versus antibody concentration” value was found to be 12 nM. For the same molecule, the “IC50: inhibition of PACAP27 (10 pM)-induced activation of human PAC1 receptor, cAMP assay in SH-SY5Y (CRL-2266) cells, POC versus antibody concentration” value in the assay with human PACAP27 was 3.7 nM.
